The values below come from US20250215499A1 (CHINESE UNIVERSITY OF HONG KONG, published 2025).

One experiment addresses SQSTM1/p62 (UniProt Q13501 2-440, limits assumed). Nature of the experiment: co-immunoprecipitation.
The target in the next experiment is T1, BECN1 (UniProt Q14457 1-450, limits assumed).
T1 construct: The ubiquitination co-IPs used endogenous protein from T-REx-293 and KYSE150 cells; also called Beclin 1; Beclin 1/BECN1
The experiment in a line: co-immunoprecipitation.

T1 sequence (Q14457 whole entry): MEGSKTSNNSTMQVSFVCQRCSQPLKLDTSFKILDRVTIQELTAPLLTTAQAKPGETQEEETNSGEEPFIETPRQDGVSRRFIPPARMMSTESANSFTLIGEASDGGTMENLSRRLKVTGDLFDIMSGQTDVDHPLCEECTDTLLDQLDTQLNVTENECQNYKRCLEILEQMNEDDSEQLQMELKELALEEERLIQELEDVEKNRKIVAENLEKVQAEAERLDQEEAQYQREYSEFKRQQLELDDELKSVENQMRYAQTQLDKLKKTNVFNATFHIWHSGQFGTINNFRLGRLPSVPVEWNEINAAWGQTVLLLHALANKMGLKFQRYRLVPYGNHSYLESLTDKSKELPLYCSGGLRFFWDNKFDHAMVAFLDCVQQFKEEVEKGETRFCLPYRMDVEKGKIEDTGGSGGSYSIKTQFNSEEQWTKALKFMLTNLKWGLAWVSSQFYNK

B1: SP0495 (small protein of KIAA0495), encoded by KIAA0495-ORF2 (other)
chain: MCLLSSSAASDLAATSLTAHPCHPPLPRQPQPQLILSGSPSIGTVPPPAVGHTSLLPVNPPAISTTTSDLSAREDATPSASTGHLSVFPAFQVKIPAVPSEQTSQSFSEASHRVLPGGGPRCSRDFGAGVAGHLGLGIFGVGFGSPALLQSVVDENSCCLLYVVEDQLCDVEQAFRAEHLGQHQSGSGTGCRHCPQRPAAL
notes: The 1-18 transmembrane/signal peptide domain is only a bioinformatic prediction and was not removed; also called KIAA0495-ORF2/SP0495; KIAA0495-ORF2 protein
Consider B1, for which the binding result with SQSTM1/p62 and in the experiment with BECN1 was “no binding” in each case.
